Laboratory results from CN117069840A (BEIJING BIOSYSTEMS BIOLOGICAL TECH CO LTD, dated 2023).

How the values were obtained:
Assay in all cases: indirect ELISA, antigen coated at 1 μg/mL, hybridoma supernatant, HRP-anti-mouse IgG
[1] = molecular target: 人源IL-10蛋白 (human, UniProt P22301 19-178)
[2] = molecular target: T1, 人源TNF-alpha蛋白 (human, UniProt P01375 77-233)
T1 construct: also called TNF-α

[3] = molecular target: T2, 人源IL-4蛋白 (human, UniProt P05112 25-153)
T2 sequence (looked up): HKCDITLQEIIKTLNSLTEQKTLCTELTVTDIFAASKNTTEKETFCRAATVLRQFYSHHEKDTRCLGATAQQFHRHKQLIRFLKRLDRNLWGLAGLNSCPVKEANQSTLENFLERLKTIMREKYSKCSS

[4] = molecular target: 人源IL-2蛋白 (human, UniProt P60568 21-153)
Sequence of 人源IL-2蛋白 (P60568 21-153 limits assumed): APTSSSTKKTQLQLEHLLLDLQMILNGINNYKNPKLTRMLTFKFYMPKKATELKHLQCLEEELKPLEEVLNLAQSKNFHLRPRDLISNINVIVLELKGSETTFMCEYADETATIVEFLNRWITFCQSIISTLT

[5] = molecular target: T3, 人源IL-7蛋白 (human, UniProt P13232 26-177)
T3 sequence (looked up): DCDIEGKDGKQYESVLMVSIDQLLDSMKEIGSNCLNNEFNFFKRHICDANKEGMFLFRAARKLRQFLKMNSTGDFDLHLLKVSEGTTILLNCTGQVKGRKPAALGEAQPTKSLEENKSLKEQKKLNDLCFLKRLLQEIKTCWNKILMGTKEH

[6] = molecular target: 人源IL-15蛋白 (human, UniProt P40933 49-162)
Sequence of 人源IL-15蛋白 (P40933 49-162 limits assumed): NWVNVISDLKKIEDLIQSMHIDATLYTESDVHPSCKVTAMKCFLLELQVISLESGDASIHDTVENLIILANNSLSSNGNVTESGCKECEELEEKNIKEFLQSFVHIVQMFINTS

[7] = molecular target: 人源IL-6蛋白 (human, UniProt P05231 30-212)
[8] = molecular target: 人源GM-CSF蛋白 (human, UniProt P04141 18-144)
Sequence of 人源GM-CSF蛋白 (P04141 18-144 limits assumed): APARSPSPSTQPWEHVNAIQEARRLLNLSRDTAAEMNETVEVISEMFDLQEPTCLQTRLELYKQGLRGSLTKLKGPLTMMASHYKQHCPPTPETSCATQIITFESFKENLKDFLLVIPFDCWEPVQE

Measured: binding result

Sequence of 人源IL-10蛋白 (P22301 19-178 limits assumed): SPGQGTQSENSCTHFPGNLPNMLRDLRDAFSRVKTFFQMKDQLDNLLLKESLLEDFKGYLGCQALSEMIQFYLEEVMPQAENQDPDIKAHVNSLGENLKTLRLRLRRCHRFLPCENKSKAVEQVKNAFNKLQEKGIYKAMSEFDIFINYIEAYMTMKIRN
T1 sequence (P01375 77-233 limits assumed): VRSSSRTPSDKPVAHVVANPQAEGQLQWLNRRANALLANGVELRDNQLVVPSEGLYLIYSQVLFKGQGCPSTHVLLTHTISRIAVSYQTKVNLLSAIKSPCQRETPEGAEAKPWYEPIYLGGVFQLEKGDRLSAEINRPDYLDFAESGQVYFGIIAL

B1: 抗体13A6G6 (antibody, V domains shown)
VH: EVKLEESGGGLVQPGGSTKLSCAASGFTFSDAWMNWVRQSPEKGLEWIAEIRTKTSNHAAYYAASVKGRFTISRDDSKSSVYLQMNSLRPEDTGIYYCTRFDYWGQGTTLTVSS
VL: DVQITQSPSYLAASPGETITINCRASKNINKHLAWYHDKPGKTNKLLIYSGSTLQSGTPSRFSGSGSGTDFTLTISSLEPEDFAVYYCQQHNEYPYTFGGGTKLAIK
notes: Mouse monoclonal antibody from a hybridoma; also called Clone 13A6G6; 克隆号13A6G6
no binding: all assays above

B2: 抗体3G6D7 (antibody, V domains shown)
VH: EIQLQQSGPELVKPGASVKVSCKASGYGFTSYNMNWVKQSHGKSLEWIGYIDPYNGGSGYNQKFKGKATLTVDKSSSTAYMHLISLTSDDSAVYYCARGDYDGGYYGMDYWGQGTSVTVSS
VL: DILLTQSPAILSVSPGESVSFSCRASQSVGTSIHWFQQRTNGSPRLLIKYASESISGIPSRFSGSGSGTDFTLIINSVESEDIADYYCQQSNGWPFTFGSGTKLEIK
notes: Mouse monoclonal antibody from a hybridoma; also called Clone 3G6D7; 克隆号3G6D7
no binding: all assays above
